B1: ISOP194BR9P1D1 (designed binder, not shown: small tags and cut ends)
chain: LPAPKNLVVSRVTEDSARLSWEHSLLNDQWFDSFLIQYQESEKVGEAIVLTVPGSERSYDLTGLKPGTEYTVSIYGVYQRGRALWYSNPLSAIFTT
notes: FN3 domain; E. coli lysate in the ELISA
B2: ISOP121BR5P1D6 (designed binder, not shown: small tags and cut ends)
chain: LPAPKNLVVSRVTEDSARLSWKQGTSFHFDSFLIQYQESEKVGEAIVLTVPGSERSYDLTGLKPGTEYTVSIYGVQLLANDIISSNPLSAIFTT
notes: as for B1
B3: ISOP121HR5P1G9 (designed binder, not shown: small tags and cut ends)
chain: LPAPKNLVVSRVTEDSARLSWTAPDAAFDSFPINYGERATKGEAINLYVPGSERSYDLTGLKPGTEYWVLIGGVKGGLKSSPLWAWFTT
notes: as for B1
B4: ISOP194GR9P1C11 (designed binder, not shown: small tags and cut ends)
chain: B3 chain with P32W, N34F, G36N, A39W, T40Q, K41N, N46R, Y48T
notes: as for B1
B5: ISOP121GR5P1B4 (designed binder, not shown: small tags and cut ends)
chain: B3 chain with V8I
notes: as for B1
B6: ISOP121BR5P1F10 (designed binder, not shown: small tags and cut ends)
chain: LPAPKNLVVSRVTEDSARLSWPLNLEYFDSFLIQYQESEKVGEAIVLTVPGSERSYDLTGLKPGTEYTVSIYGVYGRYGGPFVSNPLSAIFTT
notes: as for B1
B7: ISOP121BR5P1D10 (designed binder, not shown: small tags and cut ends)
chain: LPAPKNLVVSRVTEDSARLSWGKKSHFFDSFLIQYQESEKVGEAIVLTVPGSERSYDLTGLKPGTEYTVSIYGVYTRGQCEWESNQLSAIFFTT
notes: as for B1
B8: ISOP121BR5P1A7 (designed binder, not shown: small tags and cut ends)
chain: LPAPKNLVVSRVTEDSARLSWTTAFHNEYFDSFLIQYQESEKVGEAIVLTVPGSERSYDLTGLKPGTEYTVSIYGVYSRPKAEFTSNPLSAIFTT
notes: as for B1
B9: ISOP194BR9P1H4 (designed binder, not shown: small tags and cut ends)
chain: B8 chain with R18C
notes: as for B1
B10: ISOP194BR9P1E4 (designed binder, not shown: small tags and cut ends)
chain: B8 chain with S78Q, P80G, K81Y, A82H, E83N, F84W, T85F
notes: as for B1
B11: ISOP194BR9P1G9 (designed binder, not shown: small tags and cut ends)
chain: B8 chain with S78I, P80V, K81Q, A82V, E83L, F84W, T85F
notes: as for B1
B12: ISOP194BR9P1A5 (designed binder, not shown: small tags and cut ends)
chain: LPAPKNLVVSRVTEDSARLSWFNADEEYFDSFLIQYQESEKVGEAIVLTVPGSERSYDLTGLKPGTEYTVSIYGVYQRGYHNWFSNPLSAIFTT
notes: as for B1
B13: ISOP121BR5P1D11 (designed binder, not shown: small tags and cut ends)
chain: B12 chain with Q77V, G79A, Y80V, H81R, N82F, W83V, F84S
notes: as for B1
B14: ISOP194BR9P1C8 (designed binder, not shown: small tags and cut ends)
chain: B12 chain with F22Y, N23F, D25G, E27L, Y28W
notes: as for B1
B15: ISOP194AR9P1C5 (designed binder, not shown: small tags and cut ends)
chain: LPAPKNLVVSRVTEDSARLSWLRDFNGRAFFDSFLIQYQESEKVGEAIVLTVPGSERSYDPTGLKPGTEYTVSIYGVFITWIHVRSNPLSAIFTT
notes: as for B1
B16: ISOP194BR9P1F7 (designed binder, not shown: small tags and cut ends)
chain: LPAPKNLVVSRVTEDSARLSWFNADEEYFDSFLIQYQESEKVGEAIVLTVPGSERSYDLTGLKPGTEYTVSIYGVYTRGRYEWRESNPLSAIFTT
notes: as for B1
B17: ISOP121AR5P1G6 (designed binder, not shown: small tags and cut ends)
chain: LPAPKNLVVSRVTEDSARLSWHATFGDPFDSFLIQYQESEKVGEAIVLTVPGSERSYDLTGLKPGTEYTVSIYGVGRHYTVYDSNPLSAIFTT
notes: as for B1
B18: ISOP194ER9P1A11 (designed binder, not shown: small tags and cut ends)
chain: LPAPKNLVVSRVTEDSARLSWTAPDAAFDSFRIAYYETMVSGEAIVLTVPGSERSYDLTGLKPGTEYAVIIKGVKGGKPSWPLSAIFTT
notes: as for B1
B19: ISOP194ER9P1H9 (designed binder, not shown: small tags and cut ends)
chain: B18 chain with L61P
notes: as for B1
B20: ISOP194ER9P1G3 (designed binder, not shown: small tags and cut ends)
chain: B18 chain with V8I
notes: as for B1
B21: ISOP194ER9P1A3 (designed binder, not shown: small tags and cut ends)
chain: B18 chain with K78M, P79V
notes: as for B1
B22: ISOP194AR9P1D8 (designed binder, not shown: small tags and cut ends)
chain: LPAPKNLVVSRVTEDSARLSWDTWNDFFDSFLIQYQESEKVGEAIVLTVPGSERSYDLTGLKPGTEYTVSIYGVYQRKVIWLSNPLSAIFTT
notes: as for B1
B23: ISOP194AR9P1H3 (designed binder, not shown: small tags and cut ends)
chain: LPAPKNLVVSRVTEDSARLSWNASWISHNFFDSFLIQYQESEKVGEAIVLTVPGSERSYDLTGLKPGTEYTVSIYGVYERKTAFYSNPLSAIFTT
notes: as for B1
B24: ISOP121AR5P1D11 (designed binder, not shown: small tags and cut ends)
chain: LPAPKNLVVSRVTEDSARLSWEWLEHFDSFLIQYQESEKVGEAIVLTVPGSERSYDLTGLKPGTEYTVSIYGVYQRKVEFHSNPLSAIFTT
notes: as for B1
B25: ISOP194AR9P1C3 (designed binder, not shown: small tags and cut ends)
chain: B24 chain with E14Q, D15N, Q33H
notes: as for B1
B26: ISOP194AR9P1E8 (designed binder, not shown: small tags and cut ends)
chain: B24 chain with V48I
notes: as for B1
B27: ISOP194AR9P1C10 (designed binder, not shown: small tags and cut ends)
chain: B24 chain with L19P, Q75N, E79N, H81Y
notes: as for B1
B28: ISOP194AR9P1H9 (designed binder, not shown: small tags and cut ends)
chain: B24 chain with L31Q
notes: as for B1
B29: ISOP194AR9P1E9 (designed binder, not shown: small tags and cut ends)
chain: B24 chain with E79N, H81Y
notes: as for B1
B30: ISOP194AR9P1F2 (designed binder, not shown: small tags and cut ends)
chain: B24 chain with V9I, Q75N, E79N, H81Y
notes: as for B1

Residue numbers refer to the chain shown, from its start.

The target of the first test is unrelated Fc-fused recombinant protein. As to the kind of experiment: ELISA, lysate on plate-bound antigen. (An ELISA detects its analyte on a solid surface through an enzyme-linked reagent.)
As for B1, the ELISA Fc Control (RSU) was 1360 RSU.
As for B2, the ELISA Fc Control (RSU) is 560 RSU.
The same measure, in the same setting: with B3 the figure was 880 RSU.
The same measure, in the same setting: the value for B4 was 1040 RSU.
Same read-out and setting: with B5 the figure was 800 RSU; with B6, 560 RSU; with B7, 480 RSU.
For the molecule B8, the ELISA Fc Control (RSU) came out at 800 RSU.
Regarding B9, the ELISA Fc Control (RSU) was 3040 RSU.
B10: the ELISA Fc Control (RSU) stood at 640 RSU.
The same measure, in the same setting: the value for B11 was 640 RSU; that for B12 was 800 RSU; that for B13 was 800 RSU.
For B14, the ELISA Fc Control (RSU) is 640 RSU.
The same measure, in the same setting: with B15 the figure was 3440 RSU; with B16, 1920 RSU.
On the same count and under the same terms, with B17 the figure was 1200 RSU; with B18, 800 RSU.
On to B19, for which the ELISA Fc Control (RSU) worked out at 720 RSU.
Turning to B20, the ELISA Fc Control (RSU) turned out to be 560 RSU.
Take B21: the ELISA Fc Control (RSU) turned out to be 560 RSU.
On the same count and under the same terms, with B22 the figure was 12000 RSU; with B23, 9200 RSU; with B24, 640 RSU.
Turning to B25, the ELISA Fc Control (RSU) amounted to 56400 RSU.
The same measure, in the same setting: the value for B26 was 6960 RSU.
The same measure, in the same setting: with B27 the figure was 38200 RSU; with B28, 21300 RSU.
The same measure, in the same setting: with B29 the figure was 5520 RSU; with B30, 1920 RSU.

The target of the next test is human serum albumin (human) (UniProt P02768). Briefly: ELISA, lysate on plate-bound antigen.
Chain of human serum albumin (human) (P02768 25-609 limits assumed): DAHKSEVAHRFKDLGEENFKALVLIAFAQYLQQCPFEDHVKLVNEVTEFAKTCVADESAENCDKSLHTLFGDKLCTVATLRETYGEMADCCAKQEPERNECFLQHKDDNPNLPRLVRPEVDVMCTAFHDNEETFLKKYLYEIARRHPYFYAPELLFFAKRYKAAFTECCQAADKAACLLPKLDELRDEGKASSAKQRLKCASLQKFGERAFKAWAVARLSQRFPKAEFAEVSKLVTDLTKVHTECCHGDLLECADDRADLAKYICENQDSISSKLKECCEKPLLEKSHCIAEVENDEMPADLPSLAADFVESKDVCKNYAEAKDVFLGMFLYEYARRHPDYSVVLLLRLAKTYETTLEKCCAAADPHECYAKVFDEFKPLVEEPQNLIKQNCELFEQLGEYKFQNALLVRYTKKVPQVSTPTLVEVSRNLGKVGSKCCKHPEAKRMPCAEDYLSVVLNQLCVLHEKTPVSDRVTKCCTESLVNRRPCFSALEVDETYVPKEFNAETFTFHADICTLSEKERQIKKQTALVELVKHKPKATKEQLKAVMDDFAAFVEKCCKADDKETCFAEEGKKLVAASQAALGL
The molecule B1 gave an ELISA HSA (RSU) of 1280 RSU.
For B2, the ELISA HSA (RSU) came out at 880 RSU.
On the same count and under the same terms, the value for B3 was 1760 RSU.
On the same count and under the same terms, the value for B4 was 1440 RSU; that for B5 was 560 RSU.
On the same count and under the same terms, with B6 the figure was 720 RSU; with B7, 880 RSU; with B8, 1120 RSU.
As to B9, the ELISA HSA (RSU) turned out to be 3840 RSU.
For B10, the ELISA HSA (RSU) was found to be 1440 RSU.
As to B11, the ELISA HSA (RSU) came out at 960 RSU.
Still for that read-out and setting: with B12 the figure was 1280 RSU; with B13, 1120 RSU.
Still for that read-out and setting: the value for B14 was 1280 RSU.
The molecule B15 registered an ELISA HSA (RSU) of 1040 RSU.
As for B16, the ELISA HSA (RSU) stood at 1760 RSU.
Same read-out and setting: the value for B17 was 880 RSU; that for B18 was 880 RSU.
Regarding B19, the ELISA HSA (RSU) was 880 RSU.
Same read-out and setting: with B20 the figure was 720 RSU; with B21, 800 RSU; with B22, 6560 RSU.
For the molecule B23, the ELISA HSA (RSU) was found to be 4880 RSU.
Take B24: the ELISA HSA (RSU) is 1040 RSU.
Take B25: the ELISA HSA (RSU) was found to be 5920 RSU.
B26 registered an ELISA HSA (RSU) of 67700 RSU.
The same measure, in the same setting: the value for B27 was 15000 RSU; that for B28 was 11400 RSU; that for B29 was 1600 RSU.
B30 yielded an ELISA HSA (RSU) of 7520 RSU.

A further test deals with T1, recombinant biotinylated PD-L1 (rhPD-L1/Fc Chimera, R&D Systems 156-B7) (human, UniProt Q9NZQ7 19-238, biotinylated (sites not given)).
T1 construct: Bought Fc chimera; also called human PD-L1
T1 sequence (Q9NZQ7 19-238, change not shown): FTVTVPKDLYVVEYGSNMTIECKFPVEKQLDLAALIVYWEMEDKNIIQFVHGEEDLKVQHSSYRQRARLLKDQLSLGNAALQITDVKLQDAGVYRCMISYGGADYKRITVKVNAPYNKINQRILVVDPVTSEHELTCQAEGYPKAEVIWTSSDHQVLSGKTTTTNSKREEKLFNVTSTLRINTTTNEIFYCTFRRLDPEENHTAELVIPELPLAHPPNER
As to the kind of experiment: ELISA, lysate on plate-bound antigen. How it is done: Streptavidin-coated Maxisorp plates (Nunc catalog 436110) were blocked for 1 h in Starting Block T20 (Pierce) and then coated with biotinylated PD-L1 (using same antigen as in panning) or negative controls (an unrelated Fc-fused recombinant protein and human serum albumin) for 1 h. Plates were rinsed with TBST and diluted lysate was applied to plates for 1 h. Following additional rinses, wells were treated with HRP-conjugated anti-FN3 domain antibody (PAB25) for 1 h and then assayed with POD (Roche catalog 11582950001).
Take B1: the “ELISA PD-L1 Fc (RSU)” value was found to be 2.15e+06 RSU.
Still for that read-out and setting: with B2 the figure was 2.44e+06 RSU; with B3, 17800 RSU; with B4, 164000 RSU.
Same read-out and setting: the value for B5 was 16200 RSU.
Turning to B6, the “ELISA PD-L1 Fc (RSU)” value turned out to be 1.42e+06 RSU.
B7: the “ELISA PD-L1 Fc (RSU)” value was determined as 1.54e+06 RSU.
As to B8, the “ELISA PD-L1 Fc (RSU)” value was 389000 RSU.
On the same count and under the same terms, with B9 the figure was 4.06e+06 RSU; with B10, 9.79e+06 RSU.
B11: the “ELISA PD-L1 Fc (RSU)” value amounted to 1.44e+07 RSU.
Regarding B12, the “ELISA PD-L1 Fc (RSU)” value was 3.18e+06 RSU.
Same read-out and setting: with B13 the figure was 2.44e+06 RSU; with B14, 6.11e+06 RSU.
Still for that read-out and setting: the value for B15 was 4.37e+06 RSU.
Same read-out and setting: the value for B16 was 1.52e+07 RSU; that for B17 was 17000 RSU.
In the case of B18, the “ELISA PD-L1 Fc (RSU)” value came out at 4.35e+06 RSU.
Consider B19, for which the “ELISA PD-L1 Fc (RSU)” value stood at 3.04e+06 RSU.
B20: the “ELISA PD-L1 Fc (RSU)” value stood at 4.29e+06 RSU.
For the molecule B21, the “ELISA PD-L1 Fc (RSU)” value amounted to 2.36e+06 RSU.
Same read-out and setting: the value for B22 was 923000 RSU; that for B23 was 1.77e+07 RSU; that for B24 was 393000 RSU.
On the same count and under the same terms, the value for B25 was 3.55e+06 RSU; that for B26 was 3.4e+06 RSU; that for B27 was 1.39e+07 RSU.
The same measure, in the same setting: the value for B28 was 2.59e+06 RSU.
Take B29: the “ELISA PD-L1 Fc (RSU)” value is 1.97e+07 RSU.
B30: the “ELISA PD-L1 Fc (RSU)” value amounted to 1.63e+07 RSU.
